Here are results for 2 molecules from patent US20260258125A1 (NONA BIOSCIENCES SUZHOU, published 2026).

A word on the EC50: it is the concentration giving half of the maximal effect. Read a high EC50 as a less potent agent.

The target in test [1] is T1, recombinant CEACAM5-his protein, biotinylated (UniProt P06731 35-685, limits assumed, biotinylated (sites not given)).
T1 construct: not shown: His tag
T1 sequence (looked up): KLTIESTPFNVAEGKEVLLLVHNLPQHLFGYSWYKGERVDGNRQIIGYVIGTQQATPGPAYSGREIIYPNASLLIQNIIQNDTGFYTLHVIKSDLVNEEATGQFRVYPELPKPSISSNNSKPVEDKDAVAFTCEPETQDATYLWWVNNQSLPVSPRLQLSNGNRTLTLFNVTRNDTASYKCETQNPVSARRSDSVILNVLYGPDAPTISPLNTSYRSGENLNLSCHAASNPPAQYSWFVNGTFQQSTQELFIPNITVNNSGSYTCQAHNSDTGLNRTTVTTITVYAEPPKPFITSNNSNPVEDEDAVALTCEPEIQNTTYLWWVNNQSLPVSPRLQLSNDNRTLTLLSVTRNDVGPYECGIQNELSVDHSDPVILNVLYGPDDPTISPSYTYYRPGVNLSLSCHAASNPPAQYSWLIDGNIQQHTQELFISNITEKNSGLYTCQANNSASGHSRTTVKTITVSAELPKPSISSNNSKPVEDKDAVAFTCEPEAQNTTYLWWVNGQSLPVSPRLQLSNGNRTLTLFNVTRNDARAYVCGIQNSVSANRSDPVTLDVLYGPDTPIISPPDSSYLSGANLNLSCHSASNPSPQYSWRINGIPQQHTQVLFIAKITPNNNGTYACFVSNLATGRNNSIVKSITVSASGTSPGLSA
In words: Octet epitope binning on biotinylated CEACAM5-his; competitor PR303561. Here is the method:
(§1) In epitope binning analysis using Octet, antibodies were tested against other antibodies in a pairwise fashion to see if antibodies block one another's binding to the epitope of the antigen. The first and second antibodies was diluted into same concentration which could saturate the binding of immobilized antigens. Recombinant CEACAM5-his protein was biotinylationed and was then used as antigen and immobilized to SA sensor. The first antibody was associated with antigen and then followed by the second antibody. Data were analyzed by ForteBio Data Analysis Software (version 8.0, Pall ForteBio). The rate of RU values of the same antibody as 2nd antibody to as 1st antibody was calculated as the co-binding rate of this antibody to other antibodies.
Background: Biolayer interferometry detects binding as a change in optical thickness at a sensor tip.

A further test concerns the target T2, human CEACAM1 protein (human, UniProt P13688 35-428).
T2 construct: also called huCEACAM1
T2 sequence (looked up): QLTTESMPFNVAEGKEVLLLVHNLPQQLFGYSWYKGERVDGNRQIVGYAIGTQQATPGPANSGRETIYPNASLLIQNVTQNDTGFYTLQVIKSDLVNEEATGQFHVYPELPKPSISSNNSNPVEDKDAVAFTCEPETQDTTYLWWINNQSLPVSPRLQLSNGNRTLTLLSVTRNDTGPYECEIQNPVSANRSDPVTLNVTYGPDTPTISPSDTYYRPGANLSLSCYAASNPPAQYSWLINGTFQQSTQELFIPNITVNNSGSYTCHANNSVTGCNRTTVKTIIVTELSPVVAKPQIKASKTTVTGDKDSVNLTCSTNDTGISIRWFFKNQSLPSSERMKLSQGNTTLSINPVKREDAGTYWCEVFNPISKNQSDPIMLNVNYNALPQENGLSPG
In words: ELISA, antigen coated on plate. The source says: (§2) Binding of recombinant anti-CEACAM5/6 dual-binding monoclonal antibodies against human and cynomolgus CEACAM5, and human CEACAM6 (Uniprot P40199), human CEACAM 1, 3 (NP_001806.2, Sino Biological 11933-H08H) and 8 (NP_001807.2, Acro Bio CE8-H5224) were detected by ELISA. Anti-CEACAM5/6 dual-antibodies were serially diluted in staining buffer (PBS containing 2% FBS). […] ELISA was used to test the binding between antibody containing supernatant or purified antibodies and the antigen. Briefly, the antigens were coated on a 96-well high binding plate overnight at 4° C. The plate was washed with PBST three times, incubated with blocking buffer (2% Bovine Serum Albumin) for one hour at 37° C., washed with PBST three times and incubated with antibody containing supernatant or purified antibodies at desired dilutions or concentrations for one hour at 37° C. A secondary antibody, anti-human Fc-HRP (Jackson Laboratory, 109-035-097) was used for detection of the targeted antibody. TMB and stopping solution were used for detection of HRP signal. The HRP signal was read on a SPECTRAMAX plate reader.

The next test concerns the target T3, human CEACAM5 protein (human, UniProt P06731 35-685).
T3 construct: also called huCEACAM5
T3 sequence (looked up): T1 sequence (looked up)
In words: ELISA, antigen coated on plate.
Description: as §2

The target of a further test is T4, human CEACAM6 protein (human, UniProt P40199 35-320).
T4 construct: also called huCEACAM6
T4 sequence (looked up): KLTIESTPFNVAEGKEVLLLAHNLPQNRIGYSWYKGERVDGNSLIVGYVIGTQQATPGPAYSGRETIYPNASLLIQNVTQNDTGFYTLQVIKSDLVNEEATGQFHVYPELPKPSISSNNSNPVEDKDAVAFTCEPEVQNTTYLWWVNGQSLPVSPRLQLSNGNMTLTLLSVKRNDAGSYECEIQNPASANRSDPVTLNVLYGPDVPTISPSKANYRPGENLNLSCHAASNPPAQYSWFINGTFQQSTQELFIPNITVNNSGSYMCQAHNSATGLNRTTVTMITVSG
In words: ELISA, antigen coated on plate.
Description: as §2
(In general: An ELISA detects its analyte on a solid surface through an enzyme-linked reagent.)

The target of the next test is T5, cyno CEACAM5 protein (cynomolgus monkey).
T5 construct: also called cynomolgus CEACAM5
In words: ELISA, antigen coated on plate.
Description: as §2

For test [2], the target named is T6, human CEACAM6 on 293T cells (293T-huCEACAM6 cells) (human, UniProt P40199 35-320).
T6 construct: whole, on cells
T6 sequence (looked up): T4 sequence (looked up)
In words: flow cytometry on 293T-huCEACAM6 cells. Here is the method:
(§3) Binding of recombinant anti-CEACAM5/6 dual-binding antibodies against human or cynomolgus CEACAM5 or CEACAM6 stable cells were detected by flow cytometry. […] Anti-CEACAM5/6 dual-binding antibodies were incubated with the stable cell lines. Anti-CEACAM5/6 dual-binding antibodies were serially diluted in staining buffer (PBS containing 2% FBS). 50 μL of diluted antibody solution was added to 50 μL of cell suspension containing 1-2×10⁵ cells and incubated at 4° C. for 1 hour. […] After 1-hour incubation at 4° C., cells were washed twice and run on a flow cytometer. […] The results were shown in FIGS. 8-10 and Tables 6 below.
For orientation: Flow cytometry measures light scatter and fluorescence of single cells or particles in a stream.

Test [3] concerns the target T7, human CEACAM5 on 293T cells (293T-huCEACAM5 cells) (human, UniProt P06731 35-685).
T7 construct: whole, on cells
T7 sequence (looked up): T1 sequence (looked up)
In words: flow cytometry on 293T-huCEACAM5 cells. Here is the method:
as §3

For test [4], the target named is T1, recombinant CEACAM5-his protein, …. In words: Octet epitope binning on biotinylated CEACAM5-his; competitor PR304171. Here is the method: as §1

Residue numbers refer to the chain shown, from its start.

B1: PR304294 (antibody, human IgG1, kappa, V domains shown)
VH: EVQLLESGGGLVQPGGSLRLSCAASGFTFSSYAMSWVRQAPGKGLEWVSAISGTTYNTYYAGSVKGRFTISRDNSKNTLYLQMNSLRAEDTAVYYCAKGISVAGYYYYGMDVWGQGTTVTVSS
VL: EIVMTQSPATLSVSPGERATLSCRASQSVISNLAWYQQKPGQAPRLLIYGASTRATGIPARFSGSGSGTEFTLTISSLQSEDFAVYYCHQYNNWPLTFGGGTKVEIKR
notes: Recombinant full antibody
For the molecule B1, the co-binding rate was 102% in test [1] and -4.88% in test [4]. The binding result with human CEACAM1 protein is recorded as “no binding”. In addition, the EC50 in the test with human CEACAM5 protein is 0.04 nM; with human CEACAM6 protein, 0.22 nM; with cyno CEACAM5 protein, 0.09 nM; in test [2] it was 1.32 nM; in test [3], 1.26 nM.

B2: PR304171 (antibody, human IgG1, kappa, V domains shown)
VH: not shown
VL: B1 VL with S28N, Y36H, G50T, A51T, H89Q
notes: Recombinant full antibody
Consider B2, for which the values for the co-binding rate in test [1] and in test [4] were 101% and 13.7%, respectively. Besides, the binding result with human CEACAM1 protein is on record as “no binding”. For the same molecule, the concentration giving a half-maximal response (EC50) with human CEACAM5 protein came to 0.15 nM; with human CEACAM6 protein, 24.1 nM; with cyno CEACAM5 protein, 1.25 nM; in test [2] it was 10.6 nM; in test [3] it was 3.64 nM.
